Laboratory results: patent US20230129095A1, “PEPTIDE INHIBITORS OF INTERLEUKIN-23 RECEPTOR AND THEIR USE TO TREAT INFLAMMATORY DISEASES” (Protagonist Therapeutics, Inc., priority 2020, published 2023)
One block for each binder: values may come before it. Bridges are numbered along the chain shown (N, C = ends). [ ]: non-standard residue; d: D form. Trp(7-Ph) = N[C@@H](Cc1c[nH]c2c(-c3ccccc3)cccc12)C(=O)O; 2Nal = N[C@@H](Cc1ccc2ccccc2c1)C(=O)O; AEF = NCCOc1ccc(C[C@H](N)C(=O)O)cc1; αMeK = C[C@](N)(CCCCN)C(=O)O; Abu = CC[C@H](N)C(=O)O

What was measured:
[1] = target: T1, interleukin-23 receptor (IL-23R), human (human, UniProt Q5VWK5 24-629); assay: cell-based or functional assay
T1 sequence (looked up): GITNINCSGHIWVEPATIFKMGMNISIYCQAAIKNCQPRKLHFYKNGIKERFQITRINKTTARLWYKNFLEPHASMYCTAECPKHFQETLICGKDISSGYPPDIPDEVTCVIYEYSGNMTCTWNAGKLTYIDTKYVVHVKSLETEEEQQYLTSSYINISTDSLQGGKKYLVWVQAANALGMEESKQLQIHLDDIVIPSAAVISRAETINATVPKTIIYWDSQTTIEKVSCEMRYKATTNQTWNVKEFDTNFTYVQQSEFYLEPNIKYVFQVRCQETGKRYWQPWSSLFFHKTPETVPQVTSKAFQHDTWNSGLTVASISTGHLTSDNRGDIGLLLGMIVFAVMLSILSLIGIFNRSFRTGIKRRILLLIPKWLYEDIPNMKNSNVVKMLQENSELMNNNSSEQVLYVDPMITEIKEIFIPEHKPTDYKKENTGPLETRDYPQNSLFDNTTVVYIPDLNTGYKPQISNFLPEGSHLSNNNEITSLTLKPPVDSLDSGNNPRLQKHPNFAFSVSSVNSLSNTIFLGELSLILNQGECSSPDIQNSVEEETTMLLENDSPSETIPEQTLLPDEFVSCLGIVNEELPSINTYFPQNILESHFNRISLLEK

[2] = target: T1, interleukin-23 receptor (IL-23R), human; assay: cell-based or functional assay; remark: listed apart in the source

B1: Peptide No. 13 (SEQ ID No. 13) (peptide)
peptide: XNTXKXXXXENK
modifications: Ac-[Pen]-N-T-[W(7-Ph)]-[Lys(Ac)]-[Pen]-Phe[4-(2-aminoethoxy)]-[3Quin]-[THP]-E-N-[(D)Lys]-NH2; N-terminal acetyl, C-terminal amide; cyclized via Pen-Pen disulfide bond
- pStat3 HTRF IC50 (DB cells IL23R pSTAT3 cell assay, 0.5 nM IL-23) [1]: 0.386 nM
- NK Cell Assay IC50 (IFNgamma secretion by human NK cells stimulated with IL-23 and IL-18) [2]: 1.55 nM

B2: Peptide No. 16 (SEQ ID No. 16) (peptide)
peptide: XNTXKXXXXKNL
modifications: Ac-[Pen]-N-T-[W(7-Ph)]-[Lys(Ac)]-[Pen]-Phe[4-(2-aminoethoxy)]-[3Quin]-[a-MeLys]-[Lys(Ac)]-N-[(D)Leu]-NH2; N-terminal acetyl, C-terminal amide; cyclized via Pen-Pen disulfide bond
- pStat3 HTRF IC50 (DB cells IL23R pSTAT3 cell assay, 0.5 nM IL-23) [1]: 0.365 nM
- NK Cell Assay IC50 (IFNgamma secretion by human NK cells stimulated with IL-23 and IL-18) [2]: 2.9 nM

B4: Peptide No. 14 (SEQ ID No. 14) (peptide)
peptide: XNTXKXXXXKNK
modifications: Ac-[Pen]-N-T-[W(7-Ph)]-[Lys(Ac)]-[Pen]-Phe[4-(2-aminoethoxy)]-[3Quin]-[a-MeLys]-[Lys(Ac)]-N-[(D)Lys]-NH2; N-terminal acetyl, C-terminal amide; cyclized via Pen-Pen disulfide bond
- pStat3 HTRF IC50 (DB cells IL23R pSTAT3 cell assay, 0.5 nM IL-23) [1]: 0.437 nM
- NK Cell Assay IC50 (IFNgamma secretion by human NK cells stimulated with IL-23 and IL-18) [2]: 2.41 nM

B5: Peptide No. 18 (SEQ ID No. 18) (peptide)
peptide: Ac-[Abu]QT[Trp(7-Ph)]K(Ac)C[AEF][2Nal][αMeK]K(Ac)N[dL]-NH2
modifications: thioether 1-6
- pStat3 HTRF IC50 (DB cells IL23R pSTAT3 cell assay, 0.5 nM IL-23) [1]: 0.993 nM
- NK Cell Assay IC50 (IFNgamma secretion by human NK cells stimulated with IL-23 and IL-18) [2]: 6.28 nM

Next, values leading:

- pStat3 HTRF IC50 (DB cells IL23R pSTAT3 cell assay, 0.5 nM IL-23) [1]: 0.186 nM
- NK Cell Assay IC50 (IFNgamma secretion by human NK cells stimulated with IL-23 and IL-18) [2]: 2.44 nM
B3: Peptide No. 15 (SEQ ID No. 15) (peptide)
peptide: XNTXKXXXXENL
modifications: Ac-[Pen]-N-T-[W(7-Ph)]-[Lys(Ac)]-[Pen]-Phe[4-(2-aminoethoxy)]-[3Quin]-[THP]-E-N-[(D)Leu]-NH2; N-terminal acetyl, C-terminal amide; cyclized via Pen-Pen disulfide bond

- pStat3 HTRF IC50 (DB cells IL23R pSTAT3 cell assay, 0.5 nM IL-23) [1]: 0.518 nM
- NK Cell Assay IC50 (IFNgamma secretion by human NK cells stimulated with IL-23 and IL-18) [2]: 4.3 nM
B6: Peptide No. 1 (SEQ ID No. 1) (peptide)
peptide: XNTXKXXXXKNL
modifications: Ac-[Pen]-N-T-[W(7-Ph)]-[Lys(Ac)]-[Pen]-Phe[4-(2-aminoethoxy)]-[2-Nal]-[a-MeLys]-[Lys(Ac)]-N-[(D)Leu]-NH2; N-terminal acetyl, C-terminal amide; cyclized via Pen-Pen disulfide bond
